{
  "source": "paper PMC11197336",
  "key": {"[1]": {"target": "SepM_D221N (Streptococcus mutans)", "assay": "MST; SepM (50 nM) labelled on its His-tag with RED-tris-NTA; CSP-21 in a 16-point serial dilution from 100 µM; PBS pH 5.5; 25 °C; Monolith NT.115, triplicate"}, "[2]": {"target": "SepM_G178D (Streptococcus mutans)", "assay": "MST; SepM (50 nM) labelled on its His-tag with RED-tris-NTA; CSP-21 in a 16-point serial dilution from 100 µM; PBS pH 5.5; 25 °C; Monolith NT.115, triplicate"}, "[3]": {"target": "SepM_control (Streptococcus mutans)", "assay": "MST; SepM (50 nM) labelled on its His-tag with RED-tris-NTA; CSP-21 in a 16-point serial dilution from 100 µM; PBS pH 5.5; 25 °C; Monolith NT.115, triplicate"}, "[4]": {"target": "SepM_D221N (Streptococcus mutans)", "assay": "MST; SepM (50 nM) labelled on its His-tag with RED-tris-NTA; CSP-21 in a 16-point serial dilution from 100 µM; PBS pH 5.5; 37 °C; Monolith NT.115, triplicate"}, "[5]": {"target": "SepM_G178D (Streptococcus mutans)", "assay": "MST; SepM (50 nM) labelled on its His-tag with RED-tris-NTA; CSP-21 in a 16-point serial dilution from 100 µM; PBS pH 5.5; 37 °C; Monolith NT.115, triplicate"}, "[6]": {"target": "SepM_control (Streptococcus mutans)", "assay": "MST; SepM (50 nM) labelled on its His-tag with RED-tris-NTA; CSP-21 in a 16-point serial dilution from 100 µM; PBS pH 5.5; 37 °C; Monolith NT.115, triplicate"}, "[7]": {"target": "SepM_D221N (Streptococcus mutans)", "assay": "MST; SepM (50 nM) labelled on its His-tag with RED-tris-NTA; CSP-21 in a 16-point serial dilution from 100 µM; PBS pH 7.5; 25 °C; Monolith NT.115, triplicate"}, "[8]": {"target": "SepM_G178D (Streptococcus mutans)", "assay": "MST; SepM (50 nM) labelled on its His-tag with RED-tris-NTA; CSP-21 in a 16-point serial dilution from 100 µM; PBS pH 7.5; 25 °C; Monolith NT.115, triplicate"}, "[9]": {"target": "SepM_control (Streptococcus mutans)", "assay": "MST; SepM (50 nM) labelled on its His-tag with RED-tris-NTA; CSP-21 in a 16-point serial dilution from 100 µM; PBS pH 7.5; 25 °C; Monolith NT.115, triplicate"}, "[10]": {"target": "SepM_D221N (Streptococcus mutans)", "assay": "MST; SepM (50 nM) labelled on its His-tag with RED-tris-NTA; CSP-21 in a 16-point serial dilution from 100 µM; PBS pH 7.5; 37 °C; Monolith NT.115, triplicate"}, "[11]": {"target": "SepM_G178D (Streptococcus mutans)", "assay": "MST; SepM (50 nM) labelled on its His-tag with RED-tris-NTA; CSP-21 in a 16-point serial dilution from 100 µM; PBS pH 7.5; 37 °C; Monolith NT.115, triplicate"}, "[12]": {"target": "SepM_control (Streptococcus mutans)", "assay": "MST; SepM (50 nM) labelled on its His-tag with RED-tris-NTA; CSP-21 in a 16-point serial dilution from 100 µM; PBS pH 7.5; 37 °C; Monolith NT.115, triplicate"}},
  "note": "pKd: −log10 of the molar value.",
  "data": [
    {"substance": "CSP-21 (peptide)", "values": [
      {"measurement": "pKd", "setting": "[1]", "value": 5.08},
      {"measurement": "pKd", "setting": "[2]", "value": 4.35},
      {"measurement": "pKd", "setting": "[3]", "value": 4.48},
      {"measurement": "pKd", "setting": "[4]", "value": 5.12},
      {"measurement": "pKd", "setting": "[5]", "value": 4.67},
      {"measurement": "pKd", "setting": "[6]", "value": 4.89},
      {"measurement": "pKd", "setting": "[7]", "value": 4.68},
      {"measurement": "pKd", "setting": "[8]", "value": 5.52},
      {"measurement": "pKd", "setting": "[9]", "value": 4.80},
      {"measurement": "pKd", "setting": "[10]", "value": 4.54},
      {"measurement": "pKd", "setting": "[11]", "value": 4.07},
      {"measurement": "pKd", "setting": "[12]", "value": 4.53}
    ]}
  ]
}
